Measurements from publication PMC11220700, “Activation and Purification of ß‐Glucocerebrosidase by Exploiting its Transporter LIMP‐2 – Implications for Novel Treatment Strategies in Gaucher's and Parkinson's Disease” (Advanced Science, 2024).
*: point of attachment. Biotin = O=C1N[C@H]2[C@H](CS[C@H]2CCCCC(=O)*)N1

Molecular target: imiglucerase/Cerezyme (recombinant GCase, Sanofi Genzyme), P04062
Sequence (P04062 40-536): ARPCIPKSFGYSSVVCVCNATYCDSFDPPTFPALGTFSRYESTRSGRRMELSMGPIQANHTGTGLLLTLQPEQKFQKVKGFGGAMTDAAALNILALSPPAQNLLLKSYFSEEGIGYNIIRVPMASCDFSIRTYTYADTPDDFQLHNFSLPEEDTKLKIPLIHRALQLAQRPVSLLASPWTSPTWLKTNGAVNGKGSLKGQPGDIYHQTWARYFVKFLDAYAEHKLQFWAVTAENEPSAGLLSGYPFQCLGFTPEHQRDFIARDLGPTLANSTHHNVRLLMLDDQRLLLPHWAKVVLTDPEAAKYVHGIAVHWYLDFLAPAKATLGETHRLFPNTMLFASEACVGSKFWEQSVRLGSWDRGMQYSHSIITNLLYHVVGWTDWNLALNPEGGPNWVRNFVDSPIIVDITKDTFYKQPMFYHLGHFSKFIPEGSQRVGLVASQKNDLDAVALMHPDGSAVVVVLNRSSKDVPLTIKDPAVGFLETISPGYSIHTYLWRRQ

- other: 2.63 fold
B1: L2H5‐wt peptide (LIMP‐2‐derived helix 5 peptide) (peptide)
peptide: Biotin-KFERQGSGSQVHFLREIIEAMLKAYQSGSGYGRKKRRQRRR-NH2
